Laboratory results published in publication PMC10311653 (ACS Central Science, 2023).
Read-outs that look alike come from different tables or passages of the source.

Legend:
[1] = target: T1, wildtype (WT) human interleukin-1β (Homo sapiens, UniProt P01584)
hIL-1βQ15Kcr = hIL-1βQ15Kcr (Homo sapiens, UniProt P01584, point mutant, Nε-crotonyl-L-lysine (Kcr) at 15)
hIL-1β V151A = target: T2, hIL-1β V151A (Homo sapiens, UniProt P01584, point mutant); assay: ELISA; antigen (100 ng) coated on the plate; scFv-mFc added in 3% skim milk in DPBST, 2 h at 37 °C; EC50; settings: both partners purified
T2 construct: human interleukin-1β (hIL-1β); source: E. coli BL21 (DE3), purified (Ni-NTA, Superdex 75 SEC)

[2] = target: T1, wildtype (WT) human interleukin-1β; assay: as above; settings: both partners purified
[3] = target: T1, wildtype (WT) human interleukin-1β; assay: ELISA; phage ELISA; antigen (100 ng) coated on the plate; phages added (pfu titration) in 3% skim milk in DPBST, 2 h at 37 °C; settings: one partner purified
hIL-1βQ15G = target: T3, hIL-1βQ15G (Homo sapiens, UniProt P01584, point mutant); assay: not stated; binding affinity of Q15Kcr-G8-mFc for hIL-1β, hIL-1βQ15Kcr and hIL-1βQ15G (Figure S13E); settings: both partners purified
T3 construct: human interleukin-1β (hIL-1β); source: E. coli BL21 (DE3), purified (Ni-NTA, Superdex 75 SEC)

B1: Q15CK-B1 (antibody, V domains shown)
VH: EVQLQQSGPQLVRPGASVKISCKASGYSFTSYWMHWVKQRPGQGLEWIGMIDPSDSETRLNQKFKDKATLTVDKSSSTAYMQLSSPTSEDSAVYYCARWDSWGQGTLVTVSA
VL: DIVMTQSPSSLTVTAGEKVTMSCKSSQSLSKSGNQKNYLTWYQQKPGQPPKLLIYWASTRESGVPDRFTGSGSGTDFTLTISSVQAEDLAVYYCQNDYSYPFTFGSGTKLEIK
B1: binds [1]; binds (hIL-1βQ15Kcr).

B2: Q15CK-D6 (antibody, V domains shown)
VH: EVQLQQSGPQLVRPGASVKISCKASGYSFTNYWMHWVKQRPGQGLEWIGMIDPSDSETRLDQKFKDKATLTVDKSSSTAYMQLSSPTSEDSAVYYCARWDSWGQGTLVTVSA
VL: DILLTQSPSSLTVTAGEKVTMSCKSSQSLLNSGNQKNYLTWYQQKPGQPPKLLIYWASTRESGVPDRFTGSGSGTDFTLTISSVQAEDLAVYYCQNDYSYPFTFGSGTKLEIK
B2: binds [1]; binds (hIL-1βQ15Kcr).

B3: E64Kcr-B9-mFc (Fc fusion, mouse)
VH: EVQLQQSGAELVKPGASVKLSCTASGFNIKDTYMHWVKQRPEQGLEWIGRIDPANGNTKYDPKFQGKATITADTSSNTAYLQLSSLTSEDTAVYYCAIHYYGSLPVWGAGTTVTVSS
VL: GIVMTQSHKFMSTSVGDRVSITCKASQDVGTAVAWYQQKPGQSPKLLIYWASTRHTGVPDRFTGSGSGTDFTLTISNVQSEDLADYFCQQYSSYPLTFGAGTMLELK
notes: as the scFv of m30; source: HEK 293F, transfected, purified (Protein A, Superdex 200 SEC)
B3 was tested, and the binding result (hIL-1β V151A) was “binds” and the EC50 [2] was 0.04 nM.

B4: CL-E2 phage (scFv, V domains shown)
VH: EVQLKESGAELMKPGASVKISCKATGYTFSSYWIEWVKQRPGHGLEWIGEILPGSGSTNYNEKFKGKATFTADISSNTAYMQLSSLTSEDSAVYYCASGGYRPSMDFWGQGTSVTVSS
VL: DIVMTQSQKFMSTSVGDRVSITCKASQNVRTAVAWYQQKPGQSPKALIYLASNRHTGVPDRFTGSGSGTDFTLTITNVQSEDLADYFCLQHWNYPLTFGAGTKLELK
notes: mouse scFv from the E64AcrK immunization library; also called phage CL-E2; source: E. coli XL1-Blue with M13KO7 (ΔpIII) hyperphage, monoclonal phage, PEG 8000/NaCl precipitated
B4: binds [3].

B5: Q15Kcr-H11 phage (scFv, V domains shown)
VH: EVQLQQSGAELVKTGASVKLSCTASGFSIKDTYIHWVKQRPEQGLEWIGRIDPDPATINTKYDPHFQDKATITADTSSNTTYLQLSSLTSEDTAVYYCAIHYYGSFPYWGQGTLVTVSA
VL: DIQMTQTTSSLSASLGDRVTISCRASQDISNYLNWYQQKPDGTVKLLIYFTSRLHSGVPSRFSGSGSGTDYSLTISNLEQEDIATYFCQQGNTLPYTFGGGTKLELK
notes: mouse scFv from the Q15Kcr immunization library; source: E. coli XL1-Blue with M13KO7 (ΔpIII) hyperphage, monoclonal phage, PEG 8000/NaCl precipitated
B5: binds [3].

B6: E64Kcr-A4-mFc (Fc fusion, mouse)
VH: EVKLEESGGGLVQPGGSMKLSCVASGFTFSNYWMNWVRQSPEKGLEWVAEIRLKSNNYATPYAESVKGRFTISRDDSKSSVYLQMNNLRAEDTGIYYCTRGGIFLAYWGQGTLVTVSA
VL: DIQLTQPTSSLSASLGDRVTISCRASQDISNYLNWYQQKPDGTVKLLIYYTSRLHSGVPSRFSGSGSGTDYSLTISNLEQEDIATYFCQQGNTLPYTFGGGTKLELK
notes: as the scFv of m29; source: HEK 293F, transfected, purified (Protein A, Superdex 200 SEC)
In the case of B6, the binding result (hIL-1β V151A) is reported as “binds” and the EC50 [2] is reported as 0.121 nM.

B7: Q15CK-A8 (antibody, V domains shown)
VH: EVKLQESGAELVKPGASVKLSCTASGFNIEDTYIHWVKQRPEQGLEWIGRIDPANGNTKYDPKFQGKATITEDTSSNTAYLQLSSLTSEDTAVYYCAIHYYGSFAYWGQGTLVTVSA
VL: DIQITQSRKFMSTSVGDRVSVTCKASQNVGTNVAWYQQKPGQSPKALIYSASYRYSGVPDRFTGSGSGTDFTLTISNVQSEDLAEYFCQQYNSYPYTFGGGTKLELK
B7: binds [1]; binds (hIL-1βQ15Kcr).

B8: Q15Kcr-D1 phage (scFv, V domains shown)
VH: EVQLQESGAELVKPGASVKLSCTASGFNIEDTYIHWVKQRPEQGLEWIGRIDPANDNTKYDPKFQGKATITEDTSSNTAYLQLSSLTSEDTAVYYCAIHYYGSFAYWGQGTLVTVSA
VL: DILMTQSRKFMSTSVGDRVSVTCKASQNVGTNVAWYQQKPGQSPEALIYSASYRYSGVPDRFTGSGSGTDFTLTISNVQSEDLADYFCQQYNTYPYTFGGGTKLEMK
notes: as for B5
B8: binds [3].

B9: Q15Kcr-G8-mFc (Fc fusion, mouse)
VH: EVQLQQSGAELVKPGASVKLSCTASDFNIKDTYIHWVKQRPEQGLEWIGRIDPADGNTKYDPKFQGKATITADTSSNTAYLQLSSLTSEDTAVYYCAIHYYGSFPYWGQGTLVTVSA
VL: DIVMTQAHKFMSTSVGDRVSITCQASQDVGTAVAWYQQKPGQSPKLLIYWASTRHTGVPDRFTGSGSGTDFTLTISNVQSEDLADYFCQQYSSYPYTFGGGTKLEIK
notes: as the scFv of m42; source: HEK 293F, transfected, purified (Protein A, Superdex 200 SEC)
B9 was tested, and the “fold decrease of affinity” value (hIL-1βQ15G) was about 10 fold.

B10: Q15Kcr-C1 phage (scFv, V domains shown)
VH: EVQLQQSGAELVKPGASVKLSCTASGFNIKDTYIHWVKQRPEQGLEWIGRIDPADGNTKYDPKFQGKATITADTSSNTAYLQLSSLTSEDTAVYYCAIHYYGSFPYWGQGTLVTVSA
VL: DIQMTQTTSSLSASLGDRVSISCRTSQDISNYLNWYQQKPDGTLKLLIYFTSRLHSGVPSRFSGSGSGTDYSLTISNLEQEDIATYFCQQGKTLPYTFGGGTKLELK
notes: as for B5
B10: binds [3].

B11: Q15CK-H5 (antibody, V domains shown)
VH: EVQLQQSGAELVKPGASVRLSCTASGFNIKDTYMHWVRQRPEQGLEWIGRIDPANGNTKYDPKSQGKATLTADTSSNTAYLHLSSLTSEDTAVYYCAIHYYGSFAYWGQGTLVTVSA
VL: DIVMTQSQKFMSTSVGDRVSVTCKASQNVGTNVAWYQQKPGQSPKALIYSASYRYSGVPDRFTGSGSGTDFTLTISNVQSEDLAEYFCQQYNSYPLTFGAGTKLELK
B11: binds [1]; binds (hIL-1βQ15Kcr).

B12: Q15Kcr-B6 phage (scFv, V domains shown)
VH: EVQLQESGAELVKPGASVKLSCTASGFNIKDTYIHWVKQRPEQGLEWIGRIDPANVNTKYDPKFQGKATITADTSSNTAYLQLSSLTSEDTAVYYCAIHYYGSFAHWGQGTLVTVPA
VL: DIVMTQSHKFMSTSVGDRVSITCKASQDVGTAVAWYQQKPGQSPKLLIYWASTRHTGVPDRFTGSGSGTDFTLTISNVQSEDLADYFCQQYSSYPLTFGSGTKLEIK
notes: as for B5
B12: binds [3].

B13: Q15Kcr-A3 phage (scFv, V domains shown)
VH: EVQLQQSGAELVKPGASVKLSCTASGFNIKDTYIHWVKQRPEQGLEWIGRIDPANGNTKYDPKFQGKATIRADTSSNTAYLQLSSLTSEDTAVYYCAIHYYGSFAYWGQGTLVTVSA
VL: DILMTQSHKFMSTSVGDRVSITCKASQDVGTAVAWYQQKPGQSPKLLIYWASTRHTGVPDRFTGSGSGTDFTLTISNVQSEDLADYFCQQYSSYPYTFGGGTKLEIK
notes: as for B5
B13: binds [3].

B14: Q15CK-B10 (antibody, V domains shown)
VH: EVQLQQSGTELVKPGASVKLSCTASGFNIKDTYMHWVKQRPEQGLEWIGRIDPANDNTKYDPKFQGKATITTDTSSNTAYLQLSSLTSEDTAVYYCAIHYYGSFPYWGQGTLVTVSA
VL: DIVMTQSQKFMSTSVGDRVSITCKASQNVGTAVAWYQQKPGQSPKLLIYSASNRYTGVPDRFTGSGSGTDFTLTISNMQSEDLADYFCQQYSSYPYTFGGGTKLELK
B14: binds [1]; binds (hIL-1βQ15Kcr).

B15: Q15Kcr-H2 phage (scFv, V domains shown)
VH: EVQLQQSGAELVKPGASVKLSCTASGFNIKDTYIHWVKQRPEQGLEWIGRIDPANVNTKYDPKFQGKATITADTSSNTAYLQLSSLTSEDTAVYYCAIHYYGSFAHWGQGTLVTVSA
VL: DILMTQSQKFMSTSVGDRVSVTCKASQNVGTNVAWYQQKPGQSPKALIYQASYRYSGVPDRFTGSGSGTDFTLTISNVQSEDLAEYFCQQYNSYPYTFGGGTKLELK
notes: as for B5
B15: binds [3].

B16: Q15Kcr-C7 phage (scFv, V domains shown)
VH: EVQQQQSGTELMKPGASVKISCKATGYTFSSYWIEWVKQRPGHGLEWIGEILPGSGSTNYNEKFKGKATFTADTTSNTAYMQLSSLTSEDSAVYYCASGGYRPSMDYWGQGISVTVSS
VL: GIELTQSQKFTSTSVGDRVSVTCKASQNVGTNVAWYQQKPGQSPKALIYQASYRYSGVPDRFTGSGSGTDFTLTISNVQSEDLAEYFCQQYNSYPLTFGAGTKLELK
notes: as for B5
B16: binds [3].

B17: Q15CK-D4 (antibody, V domains shown)
VH: EVQLVESGGGLVQPGGSRKLSCAASGFTFSTFGMHWVRQAPEKGLEWVAYISSGSYTIYYADTVKGRFTISRDNPKNTLFLQMTSLRSEDTAMYYCARDDYDVNYYAMDYWGQGTSVTVSS
VL: DIVLSQSPAIMSASPGEKVTMTCSASSSVSYMHWYQQKSSTSPKLWIYDTSKLASGVPGRFSGSGSGNSYSLTISSMEAEDVATYYCFQGSGYPYTFGGGTKLEIK
B17: binds [1]; binds (hIL-1βQ15Kcr).

B18: E64Kcr-A5-mFc (Fc fusion, mouse)
VH: EVQLVESGGGLVQPGGSRKLSCAASGFTFSSFGMHWVRQAPEKGLEWVAYISSGSYTIYYADTVKGRFTISRDNPKNTLFLQMTSLRSEDTAMYYCTRDDYDVRAYAMDYWGQGTSVTVSS
VL: DIVMTQPSSSFSVSLGDRVTITCKASEDIYNRLAWYQQKPGNAPRLLISGATTLETGVPSRFSGSGSGKDYTLTITSLQTEDVATYYCQQYWSTPLTFGAGTKLELK
notes: as the scFv of m25; source: HEK 293F, transfected, purified (Protein A, Superdex 200 SEC)
In the case of B18, the binding result (hIL-1β V151A) is reported as “binds” and the EC50 [2] is reported as 0.034 nM.

B19: E64Kcr-G9-mFc (Fc fusion, mouse)
VH: EVQLVESGGGLVQPGGSRKLSCAASGFTFSSFGMHWVRQAPEKGLEWVAYISSGSSTIYYADTVKGRFTISRDNPKNTLFLQMTSLRSEDTAMYYCARDDYDVRAYAMDYWGQGTSVTVSS
VL: DIQMIQSPASLSASVGETVTITCRASQNIYSYLAWYQQKQGKSPQLLVYNAKTLAEGVPSRFSGSGSGTQFSLKINSLQPEDFGSYYCQHHYGTPLTFGAGTKLELK
notes: as the scFv of m27; source: HEK 293F, transfected, purified (Protein A, Superdex 200 SEC)
With B19 the binding result (hIL-1β V151A) was “binds” and the EC50 [2] was 0.197 nM.
